B1: TRL8605 (antibody, V domains shown)
VH: QVQLVQSGGGVVQPGRSLRLSCAVSGFTFSSYGMHWVRQAPGKGLEWVTIISYDGSNYDYADSVKGRFTISRDNSKNMVYLQMNSLRADDTAVYYCAKDGFDYWGQGTLVTVSS
VL: DIVLTQSPDSLAVSLGERATINCKSSQSVLYSSNNRTYLAWFQQKSGQPPKLLIYWASTRQSGVADRFSGSGSGTDFTLTISSLQAEDVAVYYCQQYYTTPFTFGPGTRVDFKR
notes: Human variable regions cloned from donor B cells and fused recombinantly to an independently cloned generic constant region; Kappa light chain
B2: TRL8507 (antibody, V domains shown)
VH: QVQLVESGGGVVQPGRSLRLSCAASGFTFSNYGMHWVRQAPGKGLEWVAVISFDGGNKYYADSVKGRFTISRDNSKNTLYLQMNSLRAEDTAVYYCAKSGYFDSSGYFYPYYYYGMDVWGQGTTVTVSS
VL: DIELTQAPSVSVSPGQTARITCSGDALPKEYAYWYQQKPGQAPVLVIYKDSERPSGIPERFSGSSSGTTVTLTISGVQAEDEGDYYCQSADSSGTHVVFGGGTKLTVL
notes: Human variable regions cloned from donor B cells and fused recombinantly to an independently cloned generic constant region; Lambda light chain
B3: TRL8608 (antibody, V domains shown)
VH: QVQLVQSGAEVKKPGASVKISCKASGYTFTSYYMHWLRQAPGQGLEWMGVINPTDGSTSYAQKFHGRVTMTRVTSTSTVYMDLSSLRSDDTAMYYCAKAHIHAAEGEWFDPWGQGTLVTVSS
VL: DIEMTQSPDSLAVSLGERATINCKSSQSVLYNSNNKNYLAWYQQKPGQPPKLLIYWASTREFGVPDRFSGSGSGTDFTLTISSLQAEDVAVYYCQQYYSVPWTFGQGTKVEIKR
notes: as for B1
B4: TRL8504 (antibody, V domains shown)
VH: QVQLVESGGGVVRPGRSLRLSCAASGFTFNRFAMHWVRQAPGKGLEWVSVISYDGHNKYYIDSVKGRFTISRDDSKNTLHLQMNSLRPEDTAVYYCARARDDGRGIFDYWGQGILVTVSS
VL: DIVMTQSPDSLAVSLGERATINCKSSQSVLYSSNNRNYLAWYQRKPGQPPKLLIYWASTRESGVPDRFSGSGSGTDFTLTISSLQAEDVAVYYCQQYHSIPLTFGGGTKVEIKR
notes: as for B1

Columns and labels:
[1] = biological target: T1, KIR3DL2 Extracellular Domain (UniProt P43630 22-340, limits assumed); test: adsorption ELISA on coated KIR ECD, serial dilutions; ND: not detectable
T1 construct: extracellular domain; ECD either purchased or produced in house; also called KIR3DL2 ECD
T1 sequence (P43630 22-340 limits assumed): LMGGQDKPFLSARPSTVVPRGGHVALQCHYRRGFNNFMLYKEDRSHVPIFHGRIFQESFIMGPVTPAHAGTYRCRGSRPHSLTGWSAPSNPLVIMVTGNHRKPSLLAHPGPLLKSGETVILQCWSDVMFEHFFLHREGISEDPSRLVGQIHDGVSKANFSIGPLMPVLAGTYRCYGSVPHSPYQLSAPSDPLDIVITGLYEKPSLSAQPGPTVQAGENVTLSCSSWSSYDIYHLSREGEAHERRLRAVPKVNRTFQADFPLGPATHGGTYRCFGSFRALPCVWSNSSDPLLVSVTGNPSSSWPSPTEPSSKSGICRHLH
Method: (§1) The mAbs prepared in Example 1 were tested in adsorption ELISA using different KIR Extracellullar Domains (ECD), either purchased or produced in house. Serial dilutions allowed calculating binding affinities (listed below in Table 1 in nM); ND: not detectable.

[2] = biological target: T2, KIR3DL3 Extracellular Domain (UniProt Q8N743 26-322, limits assumed); test: as above
T2 construct: extracellular domain; ECD either purchased or produced in house; also called KIR3DL3 ECD
T2 sequence (Q8N743 26-322 limits assumed): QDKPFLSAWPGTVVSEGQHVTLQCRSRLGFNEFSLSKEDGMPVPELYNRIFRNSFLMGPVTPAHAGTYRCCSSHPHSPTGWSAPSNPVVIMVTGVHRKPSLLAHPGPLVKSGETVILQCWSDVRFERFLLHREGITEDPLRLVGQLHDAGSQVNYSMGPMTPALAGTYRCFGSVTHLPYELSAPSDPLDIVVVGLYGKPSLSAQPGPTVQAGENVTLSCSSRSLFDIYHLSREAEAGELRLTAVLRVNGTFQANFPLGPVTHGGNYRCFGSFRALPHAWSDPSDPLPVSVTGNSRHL
Method: as §1

[3] = biological target: T3, KIR3DS1 Extracellular Domain (UniProt Q14943 22-340, limits assumed); test: as above
T3 construct: extracellular domain; ECD either purchased or produced in house; also called KIR3DS1 ECD
T3 sequence (Q14943 22-340 limits assumed): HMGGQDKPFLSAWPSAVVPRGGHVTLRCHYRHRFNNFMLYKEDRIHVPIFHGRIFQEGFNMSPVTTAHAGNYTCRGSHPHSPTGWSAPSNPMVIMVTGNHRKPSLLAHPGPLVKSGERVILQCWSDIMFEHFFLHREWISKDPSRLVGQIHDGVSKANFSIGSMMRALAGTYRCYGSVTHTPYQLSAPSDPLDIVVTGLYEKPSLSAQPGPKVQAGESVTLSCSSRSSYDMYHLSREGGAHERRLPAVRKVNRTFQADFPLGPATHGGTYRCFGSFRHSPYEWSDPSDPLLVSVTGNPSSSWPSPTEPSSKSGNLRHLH
Method: as §1

[4] = biological target: T4, KIR2DL4 Extracellular Domain (UniProt Q99706 22-242, limits assumed); test: as above
T4 construct: extracellular domain; ECD either purchased or produced in house; also called KIR2DL4 ECD
T4 sequence (Q99706 22-242 limits assumed): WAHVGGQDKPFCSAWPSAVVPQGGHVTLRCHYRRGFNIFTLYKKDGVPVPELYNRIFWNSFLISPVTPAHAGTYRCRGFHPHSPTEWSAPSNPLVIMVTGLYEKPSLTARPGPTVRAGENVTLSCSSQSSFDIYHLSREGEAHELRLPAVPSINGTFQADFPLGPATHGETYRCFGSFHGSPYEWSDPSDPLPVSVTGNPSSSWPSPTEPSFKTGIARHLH
Method: as §1

[5] = biological target: T5, KIR3DL1 Extracellular Domain (UniProt P43629 22-340, limits assumed); test: as above
T5 construct: extracellular domain; ECD either purchased or produced in house; also called KIR3DL1 ECD
T5 sequence (P43629 22-340 limits assumed): as the sequence (Q14943 22-340 limits assumed) above, with V47I, G58S, M92V, R136K, W138G, S163P, R166L, L199P, L315P counted along it
Method: as §1

BSA = biological target: T6, BSA (UniProt P02769 25-607); test: adsorption ELISA on coated BSA control, serial dilutions; ND: not detectable
T6 construct: Control protein in the adsorption ELISA
T6 sequence (P02769 25-607 limits assumed): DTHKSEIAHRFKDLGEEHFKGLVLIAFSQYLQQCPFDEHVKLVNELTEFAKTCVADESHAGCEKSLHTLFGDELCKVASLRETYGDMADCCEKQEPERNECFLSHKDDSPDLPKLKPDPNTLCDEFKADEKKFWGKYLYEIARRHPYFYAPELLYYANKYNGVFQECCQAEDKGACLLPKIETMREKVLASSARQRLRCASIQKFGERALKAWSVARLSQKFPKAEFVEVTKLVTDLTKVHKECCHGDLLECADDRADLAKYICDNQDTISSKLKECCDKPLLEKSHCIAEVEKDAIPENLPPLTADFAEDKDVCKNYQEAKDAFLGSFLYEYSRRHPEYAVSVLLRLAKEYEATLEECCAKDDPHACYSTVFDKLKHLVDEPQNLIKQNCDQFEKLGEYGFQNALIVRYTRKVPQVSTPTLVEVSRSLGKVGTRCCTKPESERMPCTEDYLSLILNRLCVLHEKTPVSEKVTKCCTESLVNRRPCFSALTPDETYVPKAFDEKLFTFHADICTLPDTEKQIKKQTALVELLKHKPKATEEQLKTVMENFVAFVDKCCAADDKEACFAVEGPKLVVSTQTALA

[6] = biological target: T7, KIR2DS4 Extracellular Domain (UniProt P43632 22-245, limits assumed); test: adsorption ELISA on coated KIR ECD, serial dilutions; printed as 'Affinity nM'
T7 construct: extracellular domain; ECD either purchased or produced in house; also called KIR2DS4 ECD
T7 sequence (P43632 22-245 limits assumed): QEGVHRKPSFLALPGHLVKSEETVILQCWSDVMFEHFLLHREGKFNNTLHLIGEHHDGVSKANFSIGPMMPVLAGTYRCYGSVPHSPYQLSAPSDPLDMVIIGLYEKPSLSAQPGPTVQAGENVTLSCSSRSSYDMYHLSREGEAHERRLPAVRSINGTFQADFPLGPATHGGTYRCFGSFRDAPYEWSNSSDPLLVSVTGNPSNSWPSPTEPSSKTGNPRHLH
Method: as §1

[7] = biological target: T8, KIR2DL1 Extracellular Domain (UniProt P43626 22-245, limits assumed); test: as above
T8 construct: extracellular domain; ECD either purchased or produced in house; also called KIR2DL1 ECD
T8 sequence (P43626 22-245 limits assumed): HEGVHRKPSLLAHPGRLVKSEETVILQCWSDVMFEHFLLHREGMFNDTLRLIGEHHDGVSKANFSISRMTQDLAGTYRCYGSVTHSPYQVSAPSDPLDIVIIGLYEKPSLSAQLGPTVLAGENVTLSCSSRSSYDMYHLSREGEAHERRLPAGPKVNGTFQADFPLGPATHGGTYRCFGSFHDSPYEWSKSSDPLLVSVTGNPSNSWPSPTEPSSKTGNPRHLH
Method: as §1

[8] = biological target: T9, KIR2DL2 Extracellular Domain (UniProt P43627 22-245, limits assumed); test: as above
T9 construct: extracellular domain; ECD either purchased or produced in house; also called KIR2DL2 ECD
T9 sequence (P43627 22-245 limits assumed): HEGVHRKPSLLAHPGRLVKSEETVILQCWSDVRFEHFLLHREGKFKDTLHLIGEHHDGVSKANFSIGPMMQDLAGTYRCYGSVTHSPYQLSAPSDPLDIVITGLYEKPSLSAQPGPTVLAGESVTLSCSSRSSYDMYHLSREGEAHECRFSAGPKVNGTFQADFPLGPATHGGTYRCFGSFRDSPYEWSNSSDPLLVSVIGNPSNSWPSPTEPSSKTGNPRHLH
Method: as §1

[9] = biological target: T10, KIR2DL3 Extracellular Domain (UniProt P43628 22-245, limits assumed); test: as above
T10 construct: extracellular domain; ECD either purchased or produced in house; also called KIR2DL3 ECD
T10 sequence (P43628 22-245 limits assumed): as the sequence (P43627 22-245 limits assumed) above, with R16P, E35Q, C148R, I200T, K216E counted along it
Method: as §1

[10] = biological target: T7, KIR2DS4 Extracellular Domain; test: adsorption ELISA on coated KIR ECD, serial dilutions; ND: not detectable
Method: as §1

[11] = biological target: T8, KIR2DL1 Extracellular Domain; test: as above
Method: as §1

[12] = biological target: T1, KIR3DL2 Extracellular Domain; test: adsorption ELISA on coated KIR ECD, serial dilutions; printed as 'Affinity nM'
Method: as §1

[13] = biological target: T3, KIR3DS1 Extracellular Domain; test: as above
Method: as §1

[14] = biological target: T4, KIR2DL4 Extracellular Domain; test: as above
Method: as §1

[15] = biological target: T5, KIR3DL1 Extracellular Domain; test: as above
Method: as §1

Binder | binding result [1] | binding result [2] | binding result [3] | binding result [4] | binding result [5] | binding result (BSA) | Kd [6] [nM] | Kd [7] [nM] | Kd [8] [nM] | Kd [9] [nM] | binding result [10] | binding result [11] | Kd [12] [nM] | Kd [13] [nM] | Kd [14] [nM] | Kd [15] [nM]
B1 | no binding | no binding | no binding | no binding | no binding | no binding | 2.6 | 0.026 | 0.018 | 0.005 | – | – | – | – | – | –
B2 | – | no binding | no binding | no binding | no binding | no binding | – | – | 40 | 0.1 | no binding | no binding | 67 | – | – | –
B3 | no binding | no binding | – | – | – | no binding | – | 1100 | 1800 | 79 | – | – | – | 1800 | 2000 | 1900
B4 | no binding | no binding | – | no binding | – | no binding | 55 | – | 12 | 38 | – | no binding | – | 54 | – | 10
